Data as given in patent US12042530B2, “Target peptides for immunotherapy and diagnostics” (University of Virginia Patent Foundation, priority 2012, dated 2024).
Non-standard residues stand in square brackets, D forms with d. No end group written: not given here. pT = C[C@@H](OP(=O)(O)O)[C@H](N)C(=O)O; pS = N[C@@H](COP(=O)(O)O)C(=O)O

Tests used:
HLA-B*0702 = molecular target: T1, HLA-B*0702 (Homo sapiens, UniProt P01889); assay: Phosphopeptides presented in association with class I molecules (HLA-B*0702) on cancer cells: melanoma and/or leukemia; set-up: key: Melanoma (M); Leukemia (L); L/M: Melanoma (M) and/or Leukemia (L); details: cancer type on which the HLA-B*0702 phosphopeptide is presented
T1 construct: endogenous in cells; host or cells: melanoma and/or leukemia cells

[1] = molecular target: T2, HLA-B*0702 (HLA-B7) peptide complexes (Homo sapiens, UniProt P01889); assay: HLA-B*0702 phosphopeptides associated with leukemia samples (isolation of HLA-associated peptides); details: for Copies/cell class, ALL1: acute lymphoblastic leukemia sample ALL1; for Copies/cell class, B Cell: healthy B cells; for Copies/cell class, T Cell: healthy T cells
T2 construct: endogenous in cells; host or cells: JY B-lymphoblastoid line; primary ALL, CLL, HCL, AML samples; bone marrow; healthy B and T cells
Excerpt: To identify naturally processed tumor-associated phosphopeptides, HLA-A*0201 (HLA-A2) and HLA-B*0702 (HLA-B7) peptide complexes from four (4) chronic lymphocytic leukemia (CLL) tumor samples, a mantle cell lymphoma sample (MCL), one acute lymphoblastic leukemia (ALL), and an acute myeloid leukemia (AML) sample, in addition to healthy splenic T and B-cells and the cultured lymphoblastoid cell line JY were isolated. These efforts yielded 10 HLA-A2-restricted and 86 HLA-B7-restricted phosphopeptide antigens (see Tables 6 and 7).
All cell lines were grown at 37° C. with 5% CO2 in growth medium consisting of RPMI 1640 supplemented with 10% FCS and two mM L-glutamine. Blood or leukapheresis samples were taken from patients with high-burden leukemia in heparin. Tumor cells were recovered by layering the blood over density gradient (Ficoll) and collecting the tumor layer following centrifugation. The tumor was washed in tris-buffered saline (TBS). The purity of the tumor was assessed using flow cytometry and was >98% pure in all cases. For healthy T and B-cell populations, a normal spleen sample processed and tonsil sample was collected and lymphocytes released through mechanical disruption. Mononuclear cells were isolated using a density gradient and 10^9 T cells isolated using anti-CD19 or anti-CD3 microbeads (Miltenyi Biotec Inc., Auburn, California, United States of America) with purity >98% were obtained. Bone marrow sample was obtained from an elective orthopedic procedure and red cell-depleted using hypotonic lysis. This sample was not processed further.
Class I MHC molecules were immunoaffinity purified from the JY cell line or from primary tumor samples, and their associated peptides were extracted as previously described in Zarling et al., 2006. Approximately 1.2-14×10^9 cells were lysed in a solution containing 20 mM Tris-HCl (pH 8.0), 150 mM NaCl, 1% CHAPS, one mM PMSF, five μg/mL aprotinin, 10 μg/mL leupeptin, 10 μg/mL pepstatin A, 1 μg/ml calyculin A, and phosphatase inhibitor (cocktails I and II; Sigma-Aldrich). The mixture was subjected to centrifugation and the resulting supernatant was passed over protein A sepharose pre-loaded with the HLA-A2-specific antibody BB7.2 or HLA-B7-specific antibody MEL Peptides were eluted from the purified class I MHC molecules with 10% acetic acid.

Substance | L/M (HLA-B*0702) | further results
266 (APRKG[pS]FSALM; listed as Homo sapiens) [compound 266] | M | 
267 (APRRY[pS]SSL; listed as Homo sapiens) [compound 267] | L/M | Copies/cell class, AML1 [1]: 1 (1 indicates <1 copy/cell)
270 (EPR[pS]PSHSM; listed as Homo sapiens) [compound 270] | L | Copies/cell class, AML1 [1]: 1 (1 indicates <1 copy/cell)
272 (FRR[pS]PTKSSL; listed as Homo sapiens) [compound 272] | L | Copies/cell class, AML1 [1]: 2 (2 indicates 1-5 copies/cell)
273 (FRR[pS]PTKSSLDY; listed as Homo sapiens) [compound 273] | L | Copies/cell class, AML1 [1]: 4 (4 indicates >25 copies per cell)
280 (HPRSP[pT]PTL; listed as Homo sapiens) [compound 280] | M | 
281 (KAR[pS]PGRAL; listed as Homo sapiens) [compound 281] | M | 
282 (KPA[pS]PARRL; listed as Homo sapiens) [compound 282] | L | Copies/cell class, CLL2 ([1]; CLL2): 1 (1 indicates <1 copy/cell); Copies/cell class, JY ([1]; JY): 1 (1 indicates <1 copy/cell); Copies/cell class, ALL1 [1]: 1 (1 indicates <1 copy/cell); Copies/cell class, HCL1 ([1]; hairy cell leukemia sample HCL1): 1 (1 indicates <1 copy/cell)
284 (KPPH[pS]PLVL; listed as Homo sapiens) [compound 284] | L | Copies/cell class, ALL1 [1]: 4 (4 indicates >25 copies per cell); Copies/cell class, T Cell [1]: 2 (2 indicates 1-5 copies/cell)
287 (KPP[pT]PGASF; listed as Homo sapiens) [compound 287] | L | Copies/cell class, ALL1 [1]: 3 (3 indicates 6-25 copies per cell); Copies/cell class, B Cell [1]: 1 (1 indicates <1 copy/cell); Copies/cell class, T Cell [1]: 2 (2 indicates 1-5 copies/cell)
292 (KPR[pS]PPRAL; listed as Homo sapiens) [compound 292] | L/M | 
293 (KPR[pS]PPRALV; listed as Homo sapiens) [compound 293] | M | 
294 (KPR[pS]PPRALVL; listed as Homo sapiens) [compound 294] | M | 
311 (RPA[pT]PTSQF; listed as Homo sapiens) [compound 311] | M | 
316 (RPI[pS]PGLSY; listed as Homo sapiens) [compound 316] | L | 
326 (RPRG[pS]QSLL; listed as Homo sapiens) [compound 326] | M | 
332 (RPRSL[pS]SPTVTL; listed as Homo sapiens) [compound 332] | M | 
341 (RPSGRRE[pS]L; listed as Homo sapiens) [compound 341] | M | 
345 (RPS[pT]PKSDSEL; listed as Homo sapiens) [compound 345] | L | 
353 (RRL[pS]GPLHTL; listed as Homo sapiens) [compound 353] | M | 
354 (RRP[pS]YTLGM; listed as Homo sapiens) [compound 354] | M | 
355 (RR[pS][pS]FLQVF; listed as Homo sapiens) [compound 355] | M | 
357 (RR[pS]SQSWSL; listed as Homo sapiens) [compound 357] | M | 
362 (RSR[pS]PRPAL; listed as Homo sapiens) [compound 362] | M | 
372 (SPK[pS]PTAAL; listed as Homo sapiens) [compound 372] | M | 
380 (SPRTPV[pS]PVKF; listed as Homo sapiens) [compound 380] | M | 
384 (SPVVHQ[pS]L; listed as Homo sapiens) [compound 384] | M | 
390 (YPS[pS]PRKL; listed as Homo sapiens) [compound 390] | M | 

Further lines, with some results ahead:

L/M (HLA-B*0702) | Substance | further results
M | 268 (APR[pS]PPPSRP; listed as Homo sapiens) [compound 268] | 
L | 269 (EPKRR[pS]ARL; listed as Homo sapiens) [compound 269] | Copies/cell class, AML1 [1]: 1 (1 indicates <1 copy/cell)
M | 271 (FPH[pS]LLSVI; listed as Homo sapiens) [compound 271] | 
L | 274 (FSI[pS]PVRL; listed as Homo sapiens) [compound 274] | Copies/cell class, ALL1 [1]: 4 (4 indicates >25 copies per cell); Copies/cell class, B Cell [1]: 2 (2 indicates 1-5 copies/cell); Copies/cell class, T Cell [1]: 2 (2 indicates 1-5 copies/cell)
M | 275 (GAQPGRH[pS]V; listed as Homo sapiens) [compound 275] | 
L | 276 (GPRSA[pS]LL[pS]L; listed as Homo sapiens) [compound 276] | 
M | 277 (GPRSASLL[pS]L; listed as Homo sapiens) [compound 277] | Copies/cell class, AML1 [1]: 4 (4 indicates >25 copies per cell)
M | 278 (GPR[pS]ASLLSL; not fully specified; listed as Homo sapiens) [compound 278] | Copies/cell class, AML1 [1]: 3 (3 indicates 6-25 copies per cell)
M | 279 (HPR[pS]PTPTL; listed as Homo sapiens) [compound 279] | 
L | 283 (KPA[pS]PKFIVTL; listed as Homo sapiens) [compound 283] | Copies/cell class, AML1 [1]: 2 (2 indicates 1-5 copies/cell)
L | 285 (KPP[pS]PEHQSL; listed as Homo sapiens) [compound 285] | Copies/cell class, ALL1 [1]: 1 (1 indicates <1 copy/cell)
L | 286 (KPP[pS]PSPIEM; listed as Homo sapiens) [compound 286] | 
M | 290 (KPRPPPL[pS]P; listed as Homo sapiens) [compound 290] | 
L | 298 (LPIFSRL[pS]I; listed as Homo sapiens) [compound 298] | 
M | 299 (LPK[pS]PPYTAF; listed as Homo sapiens) [compound 299] | 
M | 300 (LPRGS[pS]PSVL; listed as Homo sapiens) [compound 300] | 
M | 301 (MPRQP[pS]ATRL; listed as Homo sapiens) [compound 301] | 
M | 329 (RPRR[pS]STQL; listed as Homo sapiens) [compound 329] | 
M | 335 (RPR[pS]PPPRAP; listed as Homo sapiens) [compound 335] | 
L | 340 (RPRPV[pS]PSSL; listed as Homo sapiens) [compound 340] | 
M | 364 (RTF[pS]PTYGL; listed as Homo sapiens) [compound 364] | 
M | 365 (RTR[pS]PSPTL; listed as Homo sapiens) [compound 365] | 
M | 369 (SPFKRQL[pS]L; listed as Homo sapiens) [compound 369] | 
M | 373 (SPRER[pS]PAL; listed as Homo sapiens) [compound 373] | 
L/M | 375 (SPRR[pS]RSI[pS]L; listed as Homo sapiens) [compound 375] | 
M | 381 (SPR[pT]PV[pS]PVKF; listed as Homo sapiens) [compound 381] | 
